T1: human FcγRIIa(R) (human, UniProt P12318 36-217)
T1 construct: also called FcgRIIaR; hFcgRIIa(R)
T1 chain: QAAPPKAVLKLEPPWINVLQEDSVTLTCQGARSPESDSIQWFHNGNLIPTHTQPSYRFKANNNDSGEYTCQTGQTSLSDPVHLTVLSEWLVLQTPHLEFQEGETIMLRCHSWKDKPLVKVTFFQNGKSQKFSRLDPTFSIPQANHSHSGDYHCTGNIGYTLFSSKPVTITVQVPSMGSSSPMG

T2: human FcγRIIa(H) (human, UniProt P12318 36-217)
T2 construct: also called FcgRIIaH; hFcgRIIa(H)
T2 sequence: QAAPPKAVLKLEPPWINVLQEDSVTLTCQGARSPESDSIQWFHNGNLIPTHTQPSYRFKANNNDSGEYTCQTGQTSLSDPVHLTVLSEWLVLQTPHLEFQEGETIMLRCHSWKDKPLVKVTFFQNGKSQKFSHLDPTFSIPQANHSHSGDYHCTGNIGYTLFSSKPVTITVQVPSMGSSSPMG

T3: human FcγRIIb (human, UniProt P31994 43-217, limits assumed)
T3 construct: also called FcgRIIb; hFcgRIIb
T3 sequence: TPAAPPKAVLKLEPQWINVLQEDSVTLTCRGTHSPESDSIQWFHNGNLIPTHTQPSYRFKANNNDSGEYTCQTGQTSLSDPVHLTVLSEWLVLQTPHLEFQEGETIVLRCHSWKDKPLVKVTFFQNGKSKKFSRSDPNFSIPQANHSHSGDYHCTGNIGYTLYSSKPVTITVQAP

B1: VH3-IgG4-F890/L(WT)-CK (antibody)
heavy: QVQLQESGPGLVKPSETLSLTCAVSGHSISHDHAWSWVRQPPGEGLEWIGFISYSGITNYNPSLQGRVTISRDNSKNTLYLQMNSLRAEDTAVYYCARSLARTTAMDYWGEGTLVTVSSASTKGPSVFPLAPCSRSTSESTAALGCLVKDYFPEPVTVSWNSGALTSGVHTFPAVLQSSGLYSLSSVVTVPSSSLGTKTYTCNVDHKPSNTKVDKRVESKYGPPCPPCPAPEFLGGPSVFLFPPKPKDTLYISRTPEVTCVVVDVSQEDPEVQFNWYVDGVEVHNAKTKPREEQFNSTYRVVSVLTVLHQDWLNGKEYKCKVSNKGLPSSIEKTISKAKGQPREPQVYTLPPSQEEMTKNQVSLTCLVKGFYPSDIAVEWESNGQPENNYKTTPPVLDSDGSFFLYSRLTVDKSRWQEGNVFSCSVMHEALHYHVTQKSLSLSL
light: not shown
notes: M252Y/N434Y/Y436V in VH3-IgG4; copies: 2 + 2
B2: VH3-IgG4-F939/L(WT)-CK (antibody)
heavy: QVQLQESGPGLVKPSETLSLTCAVSGHSISHDHAWSWVRQPPGEGLEWIGFISYSGITNYNPSLQGRVTISRDNSKNTLYLQMNSLRAEDTAVYYCARSLARTTAMDYWGEGTLVTVSSASTKGPSVFPLAPCSRSTSESTAALGCLVKDYFPEPVTVSWNSGALTSGVHTFPAVLQSSGLYSLSSVVTVPSSSLGTKTYTCNVDHKPSNTKVDKRVESKYGPPCPPCPAPEFRGGPKVFLFPPKPKDTLYISRTPEVTCVVVDVSQEDPEVQFNWYVDGVEVHNAKTKPREEQFNSTYRVVSVLTVLHQDWLNGKEYKCKVSNKGLPSSIEKTISKAKGQPREPQVYTLPPSQEEMTKNQVSLTCLVKGFYPSDIAVEWESNGQPENNYKTTPPVLDSDGSFFLYSRLTVDKSRWQEGNVFSCSVMHEALHYHVTQKSLSLSL
light: not shown
notes: L235R/S239K/M252Y/N434Y/Y436V in VH3-IgG4; copies: 2 + 2
B3: VH3-IgG2-F939/L(WT)-CK (antibody)
heavy: QVQLQESGPGLVKPSETLSLTCAVSGHSISHDHAWSWVRQPPGEGLEWIGFISYSGITNYNPSLQGRVTISRDNSKNTLYLQMNSLRAEDTAVYYCARSLARTTAMDYWGEGTLVTVSSASTKGPSVFPLAPCSRSTSESTAALGCLVKDYFPEPVTVSWNSGALTSGVHTFPAVLQSSGLYSLSSVVTVPSSNFGTQTYTCNVDHKPSNTKVDKTVERKCCVECPPCPAPPVRGPKVFLFPPKPKDTLYISRTPEVTCVVVDVSHEDPEVQFNWYVDGVEVHNAKTKPREEQFNSTFRVVSVLTVVHQDWLNGKEYKCKVSNKGLPAPIEKTISKTKGQPREPQVYTLPPSREEMTKNQVSLTCLVKGFYPSDIAVEWESNGQPENNYKTTPPMLDSDGSFFLYSKLTVDKSRWQQGNVFSCSVMHEALHYHVTQKSLSLSP
light: not shown
notes: A235R/S239K/M252Y/N434Y/Y436V in VH3-IgG2; copies: 2 + 2

Columns and labels:
[1] = target: T4, human FcγRIa (human, UniProt P12314 16-292, limits assumed); test: SPR, pH 7.4, antibody captured by Protein L
T4 construct: also called FcgRIa; hFcgRIa
T4 sequence (P12314 16-292 limits assumed): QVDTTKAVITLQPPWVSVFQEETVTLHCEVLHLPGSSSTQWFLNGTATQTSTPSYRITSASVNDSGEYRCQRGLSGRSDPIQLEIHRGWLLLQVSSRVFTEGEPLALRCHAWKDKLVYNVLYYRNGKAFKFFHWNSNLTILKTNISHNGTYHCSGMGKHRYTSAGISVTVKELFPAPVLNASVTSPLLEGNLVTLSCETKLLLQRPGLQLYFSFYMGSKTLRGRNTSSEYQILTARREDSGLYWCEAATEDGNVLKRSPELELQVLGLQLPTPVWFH

[2] = target: T1, human FcγRIIa(R); test: SPR, pH 7.4, antibody captured by Protein L
[3] = target: T2, human FcγRIIa(H); test: SPR, pH 7.4, antibody captured by Protein L
[4] = target: T3, human FcγRIIb; test: SPR, pH 7.4, antibody captured by Protein L
[5] = target: T5, human FcγRIIIa(V) (human, UniProt P08637 17-208, limits assumed); test: SPR, pH 7.4, antibody captured by Protein L
T5 construct: also called hFcgRIIIa(V); FcγRIIIa allotype V158
T5 sequence (P08637 other isoform, or with tags, fused parts or gaps limits assumed): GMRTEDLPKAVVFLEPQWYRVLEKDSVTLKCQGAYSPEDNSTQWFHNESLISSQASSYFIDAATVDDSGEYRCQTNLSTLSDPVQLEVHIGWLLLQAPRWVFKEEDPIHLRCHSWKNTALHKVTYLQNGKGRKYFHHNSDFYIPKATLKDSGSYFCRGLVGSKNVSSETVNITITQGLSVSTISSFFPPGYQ

[6] = target: T6, human FcRn (complex with human β2-microglobulin) (human, UniProt P61769 21-119, limits assumed); test: SPR, pH 7.0, antibody captured by Protein L, hFcRn analyte
T6 construct: soluble human FcRn complexed with β2-microglobulin was used; also called hFcRn
T6 sequence (chain, as listed by the source limits assumed, chain 1 of 2): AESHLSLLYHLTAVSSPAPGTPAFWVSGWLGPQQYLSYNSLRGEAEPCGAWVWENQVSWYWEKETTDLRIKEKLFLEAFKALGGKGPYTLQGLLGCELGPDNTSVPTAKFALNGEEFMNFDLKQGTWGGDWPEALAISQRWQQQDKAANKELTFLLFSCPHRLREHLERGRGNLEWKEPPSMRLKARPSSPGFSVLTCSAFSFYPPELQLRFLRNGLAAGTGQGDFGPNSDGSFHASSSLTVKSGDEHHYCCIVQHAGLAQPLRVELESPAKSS
T6 sequence (P61769 21-119 limits assumed, chain 2 of 2): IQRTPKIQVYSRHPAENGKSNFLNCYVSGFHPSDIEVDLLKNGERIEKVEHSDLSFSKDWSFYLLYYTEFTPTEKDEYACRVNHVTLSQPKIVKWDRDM

Binder | binding amount [1] [RU] | binding amount [2] [RU] | binding amount [3] [RU] | binding amount [4] [RU] | binding amount [5] [RU] | Kd [6] [µM]
B1 | 367 | 92.8 | 37.5 | 71.8 | 15.5 | 0.14
B2 | 1.2 | -0.2 | -0.7 | 0.4 | -0.5 | 0.11
B3 | 1.3 | 1 | 1 | 0.4 | 1.1 | 0.14

Source: patent US20200199241A1 (Chugai, published 2020)
